Blank lines part the entries; values can stand above or below the molecule they belong to.
Tests used:
[1] = tested on: LPS mediated TNFα stimulation of rat macrophages / spleen cells; experiment: Rat in vitro LPS model; type: cell-based; settings: FIG. 41
Procedure: Rat or mouse peritoneal or spleen cell suspensions were prepared from female Lewis rats (Harlan) or BalB/cA mice (Taconic). Human mononuclear cells were isolated from buffycoats (Skejby University Hospital) as described above. The purified cells were suspended in RPMI medium supplemented with 10% FCS and 2 mM L-glutamine and cultured (2×10^5 per well) overnight in 96-well flat bottomed plates (125 μl per well) at 37° C. and 5% CO2. Glucocorticoid conjugates (Example 8), free glucocorticoids or PBS were serial diluted in supplemented RPMI medium and added (100 μl) to the overnight cell cultures at final concentrations ranging from 1-10^−7 μg glucocorticoid/ml. After incubation for a specific time ranging from 30 min-24 hours, 150 μl supernatant was carefully aspirated and 150 μl supplemented RPMI medium added to the wells before further incubation overnight. Each incubation condition was tested in duplicates or triplicates. After 16-20 hours, the cells were challenged with lipopolysaccharide (LPS) (250 ng/ml) for 4 hours before supernatant was aspirated from each well and frozen at -20° C.

[2] = tested on: LPS mediated TNFα stimulation; experiment: Rat in vivo LPS model; set-up: species or system Lewis rats; settings: i.v., challenged with LPS, FIG. 41
CD163 [3] = target: T1, CD163 (Homo sapiens, UniProt Q86VB7); experiment: scFv ELISA; type: binding; settings: for ELISA signal: PBS, read at 450 nm
Procedure: A nunc Maxisorp ELISA plate (NUNC, Roskilde, Denmark) was coated with 50 μl/well of 2 μg/ml of CD163 (purified as described in (2)) over night at 4° C. The coated plate was washed 3 times in PBS and blocked for 1 hour with 3% BSA in PBS. Fractions from scFv purification were tested by adding 100 μl/well of a 1:10 dilution of each sample in 1% BSA, PBS. The refolded protein sample was added directly to the wells (100 μl/well) and two-fold dilution series was made with dilution in 1% BSA in PBS. After 1 hour incubation at 4° C. the plate was washed 3 times in PBS again. Secondary detection was made with a 1 hour incubation of a HRP conjugated anti-His antibody (Sigma-Aldrich, Brøndby, Denmark) (1:4000 diluted in 1% BSA, PBS). After washing 3 times in PBS the ELISA was developed with […] TMB substrate (Invitrogen, Taastrup, Denmark). The reaction was stopped with 40 μl/well of 1 M H2SO4 and the plate was read in an ELISA reader at 450 nm.

CD163 [4] = target: T1, CD163; experiment: Surface plasmon resonance (Biacore) analysis of mAb binding to immobilized CD163; settings: in both 2 mM free Ca2+ and 10 mM EDTA
Procedure: (§1) SPR analysis of the binding of mAbs to CD163 was carried out on a Biacore 2000 instrument (Biacore, Uppsala, Sweden). The Biacore sensor chips (type CM5) were activated with a 1:1 mixture of 0.2 M N-ethyl-N′-(3-dimethylaminopropyl) carbodiimide and 0.05 M N-hydroxysuccimide in water. Purified recombinant CD163 were immobilized in 10 mM sodium acetate, pH 4.0, and the remaining binding sites were blocked with 1 M ethanolamine, pH 8.5. The SPR signal generated from immobilized recombinant CD163 proteins corresponded to 40-70 fmol of protein/mm^2. Sensorgrams were generated using mAb concentrations ranging from 5-100 nM. The flow cells were regenerated with 1.6 M glycine-HCl, pH 3. The running buffer used for the experiment was either CaHBS 10 mM Hepes, 150 mM NaCl, 3.0 mM CaCl2, 1.0 mM EGTA, and 0.005% Tween 20, […], and 0.005% Tween 20, pH 7.4, mAb samples were dissolved in the same buffer as the running buffer used. All binding data were analyzed using the Biamolecular Interaction Analysis evaluation program version 3.1.
as §1, with “7.4, KN2/NRY and Mac-158” for “7.4, mAb”, “buffer used at a concentration of 5 μg/ml.” for “buffer used.”

CD163 [5] = target: T1, CD163; experiment: Competition of binding to Mac2-158 epitope (SPR on Mac2-158 saturated CD163 chip); settings: 2 mM free calcium buffer, mAb 5 μg/ml
Procedure: To evaluate if there is competition in the binding of a range of mAbs to CD163 we first saturated the CD163-chip with Mac2-158 by injecting 50 μL of 50 μg/ml Mac2-158 and subsequently injecting relevant mAbs in 5 μg/ml. The binding buffer was CaHBS 10 mM Hepes, 150 mM NaCl, 3.0 mM CaCl2, 1.0 mM EGTA, and 0.005% Tween 20, pH 7.4.

[6] = target: T2, CHO cells expressing CD163 (Homo sapiens, UniProt Q86VB7); experiment: CD163 antibody binding and uptake in CHO cells expressing CD163 (confocal microscopy); type: cell-based; settings: 0 or 30 minutes, FIG. 7
T2 construct: Stably transfected Chinese hamster ovary (CHO) cells expressing the full-length human CD163; expressed in transfected cells
Procedure: Monocytes were isolated from PBMC by negative selection using magnetic beads from Dynal (Dynabeads® MyPure™ Monocyte Kit 2; Invitrogen A/S, Taastrup, Denmark) according to instructions provided by the manufacturer. Monocyte preparations were more than 95% (CD14^+) pure determined by flow cytometry. The isolated cells were washed twice with phosphate-buffered saline. Monocyte-derived macrophages (MDMs) were prepared by cell culture of monocytes (approximately 1×10^7 cells) for 4 days in 5% CO2 and 37° C. in RPMI 1640 media (RPMI 1640+25 mM HEPES+I-glutamine) (Invitrogen Corporation, Carlsbad, Calif., USA) with 20% FCS containing 100 ng/ml of M-CSF. MDMs were then detached from the flask by incubation with cell dissociation buffer (Invitrogen A/S, Taastrup, Denmark) for 30 minutes at 4 °C, then flushed, and scraped. […]
MDMs or CHO cells were washed with 4° C. cold D-PBS, pH 7.4, containing 1% BSA in Lab-Tek™ Chamber Slides (Thermo Fisher Scientific, Roskilde, Denmark). […] Fluorescence was visualized using a Zeiss Axiovert 200M microscope (Carl Zeiss GmbH, Jena, Germany) with an ×100 oil-immersion objective. […] Alternatively, immunostained cells were analyzed by confocal immunofluorescence microscopy using a Zeiss LSM-510 confocal microscope (Carl Zeiss GmbH, Jena, Germany). […]

[7] = target: T3, CD163 transfected Flp-In CHO cells (Homo sapiens, UniProt Q86VB7); experiment: Cellular binding and uptake (endocytosis) of 125I-labeled anti-CD163; type: cell-based
T3 construct: Stably transfected Chinese hamster ovary (CHO) cells expressing the full-length human CD163; expressed in transfected cells
Procedure: Monocytes were isolated from PBMC by negative selection using magnetic beads from Dynal (Dynabeads® MyPure™ Monocyte Kit 2; Invitrogen A/S, Taastrup, Denmark) according to instructions provided by the manufacturer. Monocyte preparations were more than 95% (CD14^+) pure determined by flow cytometry. The isolated cells were washed twice with phosphate-buffered saline. Monocyte-derived macrophages (MDMs) were prepared by cell culture of monocytes (approximately 1×10^7 cells) for 4 days in 5% CO2 and 37° C. in RPMI 1640 media (RPMI 1640+25 mM HEPES+I-glutamine) (Invitrogen Corporation, Carlsbad, Calif., USA) with 20% FCS containing 100 ng/ml of M-CSF. MDMs were then detached from the flask by incubation with cell dissociation buffer (Invitrogen A/S, Taastrup, Denmark) for 30 minutes at 4 °C, then flushed, and scraped. The cells were then cultured for 24 hours in RPMI 1640 media (RPMI 1640+25 mM HEPES+I-glutamine) (Invitrogen Corporation, Carlsbad, Calif., USA) supplemented with 20% FCS containing 100 ng/ml of M-CSF at 37° C. in 95% air and 5% CO2 in Lab-Tek™ Chamber Slides (Thermo Fisher Scientific, Roskilde, Denmark). 200 nM dexamethasone (Merck KGaA, Darmstadt, Germany) was added during culture to increase CD163 expression. Stably transfected Chinese hamster ovary (CHO) cells expressing the full-length human CD163, as described above, were cultured in serum-free CHO medium (HyQ-CCM, HyClone, Logan, Utah) containing 300 μg/ml Hygromycin B, as previously described (2).
Endocytosis of ^125I-labeled anti-CD163 was investigated in CD163 transfected Flp-In Chinese hamster ovary (CHO) cells and mock-transfected Flp-In as described (Madsen, M., Moller, H. J., Nielsen, M. J., Jacobsen, C., Graversen, J. H., van den Berg, T. and Moestrup, S. K. (2004) Molecular characterization of the haptoglobin.hemoglobin receptor CD163. Ligand binding properties of the scavenger receptor cysteine-rich domain region. J. Biol. Chem., 279, 51561-51567.)

T1 sequence (Q86VB7 42-1156): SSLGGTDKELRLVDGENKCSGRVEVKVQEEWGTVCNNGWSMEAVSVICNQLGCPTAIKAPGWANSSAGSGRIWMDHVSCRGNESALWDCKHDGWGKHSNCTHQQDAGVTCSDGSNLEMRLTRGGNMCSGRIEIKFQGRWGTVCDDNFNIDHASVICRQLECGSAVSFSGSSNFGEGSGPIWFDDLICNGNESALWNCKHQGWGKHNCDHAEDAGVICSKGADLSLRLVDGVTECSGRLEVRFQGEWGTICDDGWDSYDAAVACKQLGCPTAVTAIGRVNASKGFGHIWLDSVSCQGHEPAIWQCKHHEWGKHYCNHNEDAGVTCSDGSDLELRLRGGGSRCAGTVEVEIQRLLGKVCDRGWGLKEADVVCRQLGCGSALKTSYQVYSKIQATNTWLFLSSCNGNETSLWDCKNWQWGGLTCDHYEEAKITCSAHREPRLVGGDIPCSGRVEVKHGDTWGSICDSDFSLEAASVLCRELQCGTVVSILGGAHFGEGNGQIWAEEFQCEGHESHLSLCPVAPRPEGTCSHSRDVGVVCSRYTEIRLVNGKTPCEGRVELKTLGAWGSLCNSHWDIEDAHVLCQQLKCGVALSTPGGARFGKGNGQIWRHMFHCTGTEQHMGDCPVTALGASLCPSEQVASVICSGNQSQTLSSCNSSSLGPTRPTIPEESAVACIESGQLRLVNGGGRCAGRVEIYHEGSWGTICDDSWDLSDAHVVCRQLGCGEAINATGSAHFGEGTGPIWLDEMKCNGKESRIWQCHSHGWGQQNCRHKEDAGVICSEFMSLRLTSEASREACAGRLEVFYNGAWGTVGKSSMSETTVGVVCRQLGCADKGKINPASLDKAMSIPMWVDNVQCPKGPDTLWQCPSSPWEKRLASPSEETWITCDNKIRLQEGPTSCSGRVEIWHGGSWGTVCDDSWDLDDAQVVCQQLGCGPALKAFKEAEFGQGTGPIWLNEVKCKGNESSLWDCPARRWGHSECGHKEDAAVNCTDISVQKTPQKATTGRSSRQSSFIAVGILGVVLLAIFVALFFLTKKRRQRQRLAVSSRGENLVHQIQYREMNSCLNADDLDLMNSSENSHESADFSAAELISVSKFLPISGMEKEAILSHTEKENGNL
T3 sequence (Q86VB7 42-1156): as above
T2 sequence (Q86VB7 42-1156): as above

Molecule: CC1(C)O[C@@H]2C[C@H]3[C@@H]4C[C@H](F)C5=CC(=O)C=C[C@]5(C)[C@@]4(F)[C@@H](O)C[C@]3(C)[C@]2(C(=O)CO)O1 [fluocinolone-acetoniode, Fluocinolone acetonide]
- suppressive in vitro effect compared to prednisolone [1]: significantly higher
- TNFα level lower compared to vehicle [2]: 5 times

Molecule: C[C@]12C=CC(=O)C=C1CC[C@@H]1[C@@H]2[C@@H](O)C[C@@]2(C)[C@H]1CC[C@]2(O)C(=O)CO [prednisolone]
- TNFα level lower compared to vehicle [2]: 5 times

Now from value to molecule:

- dilution down to which binding signals to CD163 were detected (CD163 [3]; 2 fold dilution series): 128 fold
- ELISA signal (CD163 [3]; 64 fold dilution in 1% BSA): 0.29
- ELISA signal (CD163 [3]; 128 fold dilution in 1% BSA): 0.15
B1: refolded scFv: scFv (VH-15 residue linker-VL), SEQ ID NO: 56, expressed in E. coli and refolded (protein)
scFv: MDQVQLQESGPGLVKPSETLSLTCTVSGYSITSDYAWNWIRQFPGNKLEWMGYITYSGSTYYNPSLKSRVTISVDTSKNQFSLKLSSVTAADTATYYCVSGTYYFDYWGQGTTLTVSSGGGGSGGGGSGGGGSDIVMTQSPSSLSASVGDRVTITCRASQSVSSDVAWFQQKPGKSPKPLIYYASNRYSGVPSRFSGSGSGTDFTLTISSLQAEDFAVYFCGQDYTSPRTFGGGTKLEIKREQKLISEEDL
modifications: scFv sequence

- affinities for CD163 (CD163 [4]): nanomolar or sub-nanomolar range
- binding to CD163-Fc saturated with Mac2-158 (CD163 [5]): not able to bind
- binding and uptake [6]: best binding and uptake
- time course of cell-associated radioactivity (bound or internalized) ([7]; 125I-labelled mAb, increasing time points): did not reach a plateau
- cellular uptake and binding to CD163-expressing cells ([7]; compared with the other tested antibodies, FIG. 5): considerably higher
B2: Mac2-48: anti-human CD163 murine mAb, IQ Products; VH SEQ ID NO: 3, VL SEQ ID NO: 4 (antibody, V domains shown)
VH: DVQLQESGPGLVKPSQSLSLTCTVTGYSITSDYAWNWIRQFPGNKLEWMGFISYSGITSYNPSLKSRISITRDTSKNQFFLQLNSVTTEDSATYYCVSGTYYFDYWGQGTTLTVSS
VL: SIVMTQTPKFLLVSAGDRVTITCKASQSVSHDVSWFQQKPGQSPKLLIYYTSNRYTGVPDRFTGSGYGTDFTFTISTVQAEDLAIYFCQQDYSSPRTFGGGTKLEIKRA
modifications: Mac2-48 VH; Mac2-48 VL

— patent US20170119790A1, “Agents, Uses and Methods” (CYTOGUIDE A/S, priority 2009, published 2017)
